Experiments:
[1] = molecular target: T1, recombinant human PCSK9 (proprotein convertase subtilisin/kexin type 9) (human, UniProt Q8NBP7); assay: SPR; sensorgrams of recombinant human PCSK9 binding to Ab#2 and to Ab#2_GLP1; typical of 8 independent experiments; set-up and conditions not told in the main text; conditions: both partners purified
T1 construct: also called recombinant PCSK9; source: recombinant

[2] = molecular target: human GLP-1 receptor on stably transfected CHO cells (human) (UniProt P43220)
Chain of human GLP-1 receptor on stably transfected CHO cells (human) (P43220 24-463): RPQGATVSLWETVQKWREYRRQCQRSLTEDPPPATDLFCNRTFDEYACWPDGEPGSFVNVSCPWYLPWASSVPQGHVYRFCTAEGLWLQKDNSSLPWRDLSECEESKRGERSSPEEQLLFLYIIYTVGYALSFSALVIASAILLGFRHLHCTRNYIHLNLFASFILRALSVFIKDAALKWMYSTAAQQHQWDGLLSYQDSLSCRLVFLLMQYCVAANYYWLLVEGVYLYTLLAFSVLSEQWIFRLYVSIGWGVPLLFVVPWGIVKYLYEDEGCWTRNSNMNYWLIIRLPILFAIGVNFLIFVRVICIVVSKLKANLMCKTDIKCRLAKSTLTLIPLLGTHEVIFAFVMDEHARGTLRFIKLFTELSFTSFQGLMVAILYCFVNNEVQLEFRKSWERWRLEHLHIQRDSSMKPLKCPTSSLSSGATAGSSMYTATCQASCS

| Binder | binding result [1] | potency in the cAMP accumulation assay, CHO cells expressing human GLP-1R [2] [nM] |
| --- | --- | --- |
| Ab#2_GLP1: DPP-4-resistant GLP-1 analogue peptide fused by the [G4S]3A linker to the light chain of anti-PCSK9 Ab#2 (antibody, V domains shown, also called non-glycosylated Ab#2_GLP1 fusion; source: CHO cells, transient co-transfection, purified (Protein A MabSelectSure)) VH: QVQLVQSGAEVKKPGASVKVSCKASGYTFTSYYMHWVRQAPGQGLEWMGEIHPSGGRTNYNEKFKSRVTMTRDTSTSTVYMELSSLRSEDTAVYYCARERPLYASDLWGQGTTVTVSS VL: DIQMTQSPSSLSASVGDRVTITCKASQDVHTAVAWYQQKPGKAPKLLIYHASYRYTGVPSRFSGSGSGTDFTFTISSLQPEDIATYYCQQRYSLWRTFGQGTKLEIK | binds | 0.087 |
| anti-PCSK9 antibody Ab#2 (antibody, V domains shown, also called anti-PCSK9 Ab#2; source: CHO cells, transient co-transfection, purified (Protein A MabSelectSure)) VH: QVQLVQSGAEVKKPGASVKVSCKASGYTFTSYYMHWVRQAPGQGLEWMGEIHPSGGRTNYNEKFKSRVTMTRDTSTSTVYMELSSLRSEDTAVYYCARERPLYASDLWGQGTTVTVSS VL: DIQMTQSPSSLSASVGDRVTITCKASQDVHTAVAWYQQKPGKAPKLLIYHASYRYTGVPSRFSGSGSGTDFTFTISSLQPEDIATYYCQQRYSLWRTFGQGTKLEIK | binds | – |
